Assay results reported in PMC5053136 (Acta Crystallographica. Section D, Structural Biology, 2016).

Molecular target: the molecule itself
Assay: SAXS with online ion-exchange chromatography (IEC-SAXS)

B1: D5_(323–785), the D5N and helicase domains of the Vaccinia virus helicase–primase D5 (domain or fragment)
chain: GNKLFNIAQRILDTNSVLLTERGDYIVWINNSWKFNSEEPLITKLILSIRHQLPKEYSSELLCPRKRKTVEANIRDMLVDSVETDTYPDKLPFKNGVLDLVDGMFYSGDDAKKYTCTVSTGFKFDDTKFVEDSPEMEELMNIINDIQPLTDENKKNRELYEKTLSSCLCGATKGCLTFFFGETATGKSTTKRLLKSAIGDLFVETGQTILTDVLDKGPNPFIANMHLKRSVFCSELPDFACSGSKKIRSDNIKKLTEPCVIGRPCFSNKINNRNHATIIIDTNYKPVFDRIDNALMRRIAVVRFRTHFSQPSGREAAENNDAYDKVKLLDEGLDGKIQNNRYRFAFLYLLVKWYKKYHVPIMKLYPTPEEIPDFAFYLKIGTLLVSSSVKHIPLMTDLSKKGYILYDNVVTLPLTTFQQKISKYFNSRLFGHDIESFINRHKKFANVSDEYLQYIFIEDISSP
notes: also called D5R fragment
**Q.** For B1, which “stoichiometry N” value is on record?
**A.** 6
